Source: US20250136696A1 (HARBOUR BIOMED SHANGHAI, published 2025)

Experiments:
[1] = target: T1, biotinylated human B7-H7 protein (Acro Biosystems, B77-H82F5) (human, UniProt Q9UM44 23-344, biotinylated); experiment: flow cytometry, blocking of biotinylated human B7-H7 binding to CHO-K1/KIR3DL3 cells
T1 construct: Bought soluble protein; also called biotin-B7H7 protein
T1 sequence (looked up): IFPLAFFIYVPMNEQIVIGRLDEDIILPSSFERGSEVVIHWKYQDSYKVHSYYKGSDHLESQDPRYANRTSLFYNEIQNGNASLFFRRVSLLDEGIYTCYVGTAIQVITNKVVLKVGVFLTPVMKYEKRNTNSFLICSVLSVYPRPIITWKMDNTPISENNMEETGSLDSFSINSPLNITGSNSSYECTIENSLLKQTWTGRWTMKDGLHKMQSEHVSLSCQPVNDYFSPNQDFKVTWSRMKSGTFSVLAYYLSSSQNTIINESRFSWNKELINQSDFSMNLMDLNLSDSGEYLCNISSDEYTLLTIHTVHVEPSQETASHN
Excerpt: (§1) This example was intended to study the in vitro blocking activity of human anti-B7-H7 antibodies against the binding of human B7-H7 to its receptor KIR3DL3. A CHO-K1 cell (CHO-K1/KIR3DL3, Harbour BioMed US, Inc.) overexpressing human KIR3DL3 was used in experiments at the cellular level where human B7-H7/human KIR3DL3 binding was blocked. Briefly, the CHO-K1/KIR3DL3 cells were digested and resuspended in PBS containing 2% BSA. The cells were adjusted to a cell density of 1×10⁶ cells/mL. […] The cells were incubated at 4° C. for 1 hour in the dark. […] The cells were rinsed twice by adding pre-chilled PBS containing 2% BSA at 100 μL/well, and were centrifuged at 500 g at 4° C. for 5 minutes, and the supernatant was discarded. A fluorescent secondary antibody (PE Streptavidin, BD, Cat #: 554061, 1:200) was added at 100 μL/well, and the cells were incubated at 4° C. for 30 minutes in the dark. The cells were washed twice by adding pre-chilled PBS at 200 µL/well, and centrifuged at 500 g at 4° C. for 5 minutes, and the supernatant was discarded. Finally, the cells were resuspended in pre-chilled PBS at 200 μL/well, and the fluorescence signal values were read using an ACEA Novocyte3000 flow cytometer. IC50 was calculated.

[2] = target: T1, biotinylated human B7-H7 protein (Acro …); experiment: flow cytometry, blocking of biotinylated human B7-H7 binding to HEK-293/CD28H cells
Description: as §1, with “CD28H. […]” for “KIR3DL3. A CHO-K1 cell (CHO-K1/KIR3DL3, Harbour BioMed US, Inc.) overexpressing human KIR3DL3 was used in experiments at the cellular level where human B7-H7/human KIR3DL3 binding was blocked. Briefly, the CHO-K1/KIR3DL3 cells were digested and resuspended in PBS containing 2% BSA.”, “μL/well,” for “µL/well,”

[3] = target: T2, human B7-H7 recombinant protein (human, UniProt Q9UM44 23-344); experiment: BLI (Octet), antibody captured on AHC sensor, human B7-H7 in solution, 1:1 global fit
T2 construct: also called human B7-H7 protein
T2 sequence (looked up): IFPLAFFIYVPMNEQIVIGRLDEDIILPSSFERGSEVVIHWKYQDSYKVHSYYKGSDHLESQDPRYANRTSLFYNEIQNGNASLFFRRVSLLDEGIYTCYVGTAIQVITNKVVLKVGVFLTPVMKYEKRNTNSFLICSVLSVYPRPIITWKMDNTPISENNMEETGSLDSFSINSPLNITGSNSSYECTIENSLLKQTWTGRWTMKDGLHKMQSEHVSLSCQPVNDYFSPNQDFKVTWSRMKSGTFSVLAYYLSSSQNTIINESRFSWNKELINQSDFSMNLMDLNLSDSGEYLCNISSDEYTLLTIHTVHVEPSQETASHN
Description: The binding kinetics between antigen and antibody was analyzed using an Octet Red 96e (Fortebio) molecular interaction analyzer by biolayer interferometry (BLI) technology.
For determining the affinity of antibodies for antigens, the rotary speed of the sensor was set at 1000 rpm. AHC sensors (Fortebio, #18-5060) placed in one column were first equilibrated in a test buffer for 10 minutes, and then used to capture the anti-B7-H7 antibodies at a capture height of 0.7 nm; and after being equilibrated in the buffer for 120 s, the AHC sensors bound to human B7-H7 (concentrations: 50-3.125 nM and 0 nM) with 2-fold gradient dilution for 180 s and dissociated for 300 s. The AHC sensors were finally regenerated by immersing in a 10 mM glycine-hydrochloric acid solution with pH 1.5 to elute the protein bound to the sensors.
For data analysis using Octet Data Analysis software (Fortebio, version 11.0), 0 nM well was used as the reference well, reference subtraction was performed, “1:1 Global fitting” method was selected for data fitting, the kinetic parameters of the binding of the antigen to the antigen-binding protein were calculated, and the kₒₙ (1/Ms) value, kdis (1/s) value and KD (M) value were obtained.

[4] = target: T1, biotinylated human B7-H7 protein (Acro …); experiment: BLI epitope competition on SA-captured biotinylated B7-H7; competitor (first antibody) PR003249
Description: Epitope competition experiments were performed on the anti-B7-H7 antibodies using the ForteBio Octet Red96e platform with the same experimental buffer as described above. […] After being equilibrated in a buffer for 120 s, the sensors were immersed in various antibodies diluted to 100 nM for 240 s, and the final signal of the antibody binding to B7-H7 was recorded as the 100% signal for that antibody. Second step, epitope competition experiment: B7-H7 was captured using SA sensors at a capture height of 0.25 nm. The sensors were immersed in a first antibody (concentration: 100 nM) for 240 s, then the SA sensors were immersed in a mixture of the first antibody and a second antibody (final concentration of both antibodies: 100 nM) for 240 s, and the difference in signals before and after immersing the sensors in the mixture of the two antibodies was recorded as the signal for that antibody as the second antibody. The inhibition rate was calculated by the following equation, […]

Binder	IC50 [1] [nM]	Maximum inhibition rate (%) [1] [%]	IC50 [2] [nM]	Maximum inhibition rate (%) [2] [%]	Kd [3] [nM]	koff [3] [s⁻¹]	kon [3] [M⁻¹ s⁻¹]	Competitive inhibition rate (%) [4] [%]
PR004260 (antibody, human IgG1, kappa, L234A L235A, Variant of PR003181; Human IgG1 with LALA mutation in Fc) heavy: not shown light: DIVMSQSPSSLAVSAGEKVTMSCKSSQSLLNSRTRKNQLAWYQQKPGQSPKLLIYWASTRESGVPDRFTGSGSGTDFTLTISSVQAEDLAVYYCKQSYNLRTFGGGTKLEIKRTVAAPSVFIFPPSDEQLKSGTASVVCLLNNFYPREAKVQWKVDNALQSGNSQESVTEQDSKDSTYSLSSTLTLSKADYEKHKVYACEVTHQGLSSPVTKSFNRGEC	8.51	96.2	–	–	–	–	–	–
PR003260 (antibody, human IgG1, kappa, V domains shown, Human IgG1; also called 70F3B1) VH: QVQLVESGGGVVQPGRSLRLPCAASGFTFSRYGMHWVRQAPGKGLEWVADIWYDGSKKYYADSVKGRFTISRDNSKNTLYLQMNSLRAEDTAVYFCTRDGGYSYGPFDYWGQGTLVTVSS VL: EIVMTQSPATLSVSPGERATLSCRASQSVSSNLAWYQQKPGQAPRLLIYYASTRAPGIPARFSGSESGTEFTLTISSLQSEDFAVYYCQQYNIWPYTFGQGTKLEIKR	6.46	106	2.47	20.4	1.68	0.000102	61100	-3.18
PR003263 (antibody, human IgG1, kappa, V domains shown, Human IgG1; also called 77E6C4) VH: QVQLVESGGGVVQPGRSLRLSCAASGFTFSYYGLNWVRQAPGKGLEWVAVIWFDGTNKYYADSVKGRFTISRDDSKNTLYLQMNSLRAEDTAVYYCARGYGSGSYYNYVMDAWGQGASVTVSS VL: EIVMTQSPATLSVSPGERATLSCRASQSVSSNLAWYQQKPGQAPRLLIYGASTGATGIPARFSGSGSGTDFTLTISSLQSEDFAVYYCQQYYKWPLTFGGGTKVEIKR	6.23	103	1.7	59.3	5.44	0.000441	81100	-0.324
PR003251 (antibody, human IgG1, kappa, V domains shown, Human IgG1; also called 29F2C8) VH: QVQLVESGGGVVQPGRSLRLSCAVSGFTFSRYGMHWVRQAPGKGLDWVAVIWYNGNNKYYTDSVKGRFTISRDNSKNTLFLQMNSLRAEDTAVYYCARDGAYSYGPFDYWGQGTLVTVSS VL: not shown	6.34	96.4	1.24	16.2	6.7	0.000632	94300	-6.54
PR003254 (antibody, human IgG1, kappa, V domains shown, Human IgG1; also called 59D6D2) VH: QVQLVESGGGVVQPGRSLRLSCAASGFTFSSYGMHWVRQAPGKGLEWVADIWYNGNNKYYADSVKGRFTISRDNSKNTLYLQMNSLRAEDTALYYCARDGGYSYGPFDYWGQGTLVTVSS VL: not shown	7.18	97.2	1.59	27.4	32.3	0.00245	75600	-5.96
PR003262 (antibody, human IgG1, kappa, V domains shown, Human IgG1; also called 77D5A4) VH: QVQLVESGGGVVQPGRSLRLSCAASGFTFSRYGIHWVRQAPGKGLEWVAVIWYNGRNKYYVDSVKGRFTISRDNSKNTLYLQMNSLRAEDTAVYYCARDGGYSYGPFDYWGQGTLVTVSS VL: EIVMTQSPATLSVSPGERATLSCRASQSFSNNLAWYQQKPGQAPRLLIYGASTRATGIPARFSGSGSGTEFTLTISSLQSEDFAVYYCHQYNIWPLTFGGGTKVEIKR	9.93	105	3.37	26.4	1.55	0.000117	75500	-2.6
PR003264 (antibody, human IgG1, kappa, Human IgG1; also called 77G10D3) heavy: not shown light: DIQLTQSPSFLSASVGDRVTITCRASQGISSYFAWYQQKPGKAPKLLIYAASTLQSGVPSRFSGSGSGTEFTLTISSLQPEDFATYYCQHLNRYPWTFGQGTKVEIKRTVAAPSVFIFPPSDEQLKSGTASVVCLLNNFYPREAKVQWKVDNALQSGNSQESVTEQDSKDSTYSLSSTLTLSKADYEKHKVYACEVTHQGLSSPVTKSFNRGEC	8.56	104	1.52	101	2.94	0.000115	39000	109
PR004263 (antibody, human IgG1, kappa, L234A L235A, Variant of PR003264; Human IgG1 with LALA mutation in Fc) heavy: not shown light: DIQLTQSPSFLSASVGDRVTITCRASQGISSYFAWYQQKPGKAPKLLIYAASTLQSGVPSRFSGSGSGTEFTLTISSLQPEDFATYYCQHLNRYPWTFGQGTKVEIKRTVAAPSVFIFPPSDEQLKSGTASVVCLLNNFYPREAKVQWKVDNALQSGNSQESVTEQDSKDSTYSLSSTLTLSKADYEKHKVYACEVTHQGLSSPVTKSFNRGEC	8.77	99.9	–	–	–	–	–	–
